According to the supplement of paper PMC9170038:

System: MS2 coat protein
Experiment: apparent KD of MS2 coat protein; designed switch direction (-1 OFF switch, 1 ON switch): -1; higher = weaker reporter binding
In short: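 RNA switches sharing common flanks were transcribed by stalled E. coli RNA polymerase on Illumina chips. A doubling series of SNAP-549-labelled MS2 coat protein, from 0.7 or 1.5 nM to 3 µM, was applied in Tris-HCl pH 7.5 buffer with KCl, MgCl2, BSA, DTT, tRNA and Tween-20. Each step lasted 0.8–1.5 h at the bottom of the series and 10–20 min at the top. Normalised cluster fluorescence was curve-fitted, giving apparent KD as the per-design median over clusters.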

[1] = Eterna round: R95, input ligand: microRNA oligo, concentration not stated
[2] = input ligand: microRNA oligo, concentration not stated

Row | Sequence | apparent KD of MS2 coat protein (input ligand: FMN 200 uM) [nM] | apparent KD of MS2 coat protein (input ligand: none) [nM] | apparent KD of MS2 coat protein [2] [nM] | further results
1 | UAGUACAGAGGAUAUACAUGAGGAUCACCCAUGUGUUUCAGCUAGGAGACUAGCGAAAGUAGAAGGCUGUACUG [salish99_ex3_r4_010] (Eterna round: R97, puzzle: Exclusion 3) | 26.2 | 11.4 |  | 
2 | UAGUGGGUACGAAGGAGUAGUUUGAGCGUACGUUCUGUAACAUGAGGAUCACCCAUGUAGCUUUUUGCUCGACUUAU [JR_SV3TOV2_Sub037] (puzzle: Sensor v3, turn-off variant 2) |  |  |  | apparent KD of MS2 coat protein (Eterna round: R95, input ligand: FMN 200 uM): 28.9 nM; apparent KD of MS2 coat protein [1]: 55.7 nM; apparent KD of MS2 coat protein (Eterna round: R95, input ligand: none): 29.4 nM
3 | UAUACACAUGAGGAUCACCCAUGUGAGGAUAUGUUAAUUUUAAUGAAAAUUAAAAUUAACAGAAGGCACAUAUA [JR_Exclusion1_Sub025] (puzzle: Exclusion 1) |  |  |  | apparent KD of MS2 coat protein [1]: 67.2 nM
4 | UAUAUAUAGUAAGGAUAUGUAAUUAUUUUACAAACAGAAGGUACUGACAUGAGGAUCACCCAUGUUUUAGUGUGGGCAUGUAGA [JMF's solution 46] (Eterna round: R96, puzzle: Exclusion NG 1) |  |  | 39.7 | 
5 | UAUAUAUAGUAAGGAUAUGUAAUUAUUUUAUAGACAGAAGGUACUGACAUGAGGAUCACCCAUGUUUUAGUGUGGGCAUGUAGA [JMF's solution 50] (Eterna round: R96, puzzle: Exclusion NG 1) |  |  | 60.9 | 
6 | UAUAUAUAGUAAGGAUAUGUAAUUUUUUUAUAAACAGAAGGUACUGACAUGAGGAUCACCCAUGUUUUAGUGUGGGCAUGUAGA [JMF's solution 32] (Eterna round: R96, puzzle: Exclusion NG 1) |  |  | 78.3 | 
7 | UAUAUAUAGUAAGGAUAUGUAUAUAUUUUAUGAACAGAAGGUACUGACAUGAGGAUCACCCAUGUUUUAGUGUGGGCAUGUAGA [JMF's solution 70] (Eterna round: R96, puzzle: Exclusion NG 1) | 49.4 | 64.8 | 38.8 | 
8 | UAUAUAUAGUAAGGAUAUGUAUUAAAUUUAUAAACAGAAGGUACUGACAUGAGGAUCACCCAUGUUUUAGUGUGGGCAUGUAGA [JMF's solution 75] (Eterna round: R96, puzzle: Exclusion NG 1) |  |  | 69 | 
9 | UAUAUAUAGUAAGGAUAUGUAUUUAUAUUAUAAACAGAAGGUACUGACAUGAGGAUCACCCAUGUUUUAGUGUGGGCAUGUAGA [JMF's solution 15] (Eterna round: R96, puzzle: Exclusion NG 1) |  |  | 66.6 | 
10 | UAUAUAUAGUAAGGAUAUGUAUUUAUUUUAUCAACAGAAGGUACUGACAUGAGGAUCACCCAUGUUUUAGUGUGGGCAUGUAGA [JMF's solution 26] (Eterna round: R96, puzzle: Exclusion NG 1) | 155 | 85.7 | 69.7 | 
11 | UAUAUGUCAGGAUAUCGAUUAGUACGGGAUUCGGUACUGGUUGAGAAGGGACAUGAGGAUCACCCAUGUUUUUC [EX4 #69] (Eterna round: R97, puzzle: Exclusion 4) | 284 | 36.5 |  | 
12 | UAUAUGUCAGGAUAUCGAUUGGAACAGAAUUUAACAAUGGUCGAGAAGGGACAUGAGGAUCACCCAUGUUCAAC [JR_Ex4_Sub020] (Eterna round: R97, puzzle: Exclusion 4) | 27.3 | 21.9 |  | 
13 | UAUAUGUGAGGAUAUCAGGUGUGCUAGCGUACUGGUACAUCUGAGAAGGCACAUGAGGAUCACCCAUGUUUCUU [JL-ex4-3.24 Brourd mod] (puzzle: Exclusion 4) |  |  |  | apparent KD of MS2 coat protein [1]: 24.4 nM
14 | UAUCGGGACUGAGGAUAUUCGUUCGAACACGAAGAAGAAGGUAGUGUCAGGGACAUGAGGAUCACCCAUGUGAACUCAGUCCUA [JL ViennaUCT Erinle mod] (Eterna round: R96, puzzle: Exclusion NG 1) | 38.3 | 38.3 | 33.7 | 
